In experiment [1] the target is hen eggwhite lysozyme (hen) (UniProt P00698). Kind of experiment: fluorescence quench titration with hen eggwhite lysozyme, in solution.
The target is the same in experiment [2]. Kind of experiment: fluorescence quench titration with hen eggwhite lysozyme, in solution; reassociated chains.

As usually defined, the Kd is the free concentration of one partner at which half of the binding sites on the other are occupied at equilibrium, for simple one-to-one binding.

Chain of UniProt P00698 (P00698 19-147 limits assumed): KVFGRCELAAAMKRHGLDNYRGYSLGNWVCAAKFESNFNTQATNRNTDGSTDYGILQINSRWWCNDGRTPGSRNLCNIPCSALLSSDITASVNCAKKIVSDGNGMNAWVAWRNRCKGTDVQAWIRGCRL

antilysozyme antibody D1.3 (H₂K₂): the values for the equilibrium dissociation constant (Kd) in experiment [1] and in experiment [2] were 14.4 nM and 11.4 nM, respectively.
In turn, “recombinant D1.3 (H*₂K₂) (reassociated) (antibody)” came in with a Kd in experiment [2] of 9.2 nM.
